This note sets out measurements from patent US11883498B2, “Luteinizing hormone-releasing hormone receptor (LHRH-R) conjugates and uses thereof” (priority 2016, dated 2024).

For series [1], the system named is MDA-MB231 tumor xenografts. The note with it: for Competition of kidney uptake by coadministered unlabeled conjugate: 100-fold excess unlabeled conjugate. How it is done: Animal Husbandry and in vivo tumor implantation. Female athymic nu/nu mice were purchased from Harlan laboratories. The animals were housed in a sterile environment and kept in 12 h light/day cycle. The animals have free access to rodent chow and water. 2×10^6 MDA-MB23 cells were suspended in 100 microliters of sterile phosphate buffer saline and injected subcutaneously into the right flank of each mouse.
In vivo imaging and biodistribution. All the animal experiments were conducted in accordance to the guidelines approved by Purdue Animal Care and Use Committee. The experiment was initiated once the tumor volume reached approximately 300-400 mm^3. Tumor volume was measured as 0.5×L×W2, where L is the longest axis and W is an axis perpendicular to L in mm. In the lateral tail vein, the mice were injected with 150 μCi of the radioactive conjugates (either in the presence or absence of excess of the unlabeled conjugates.) in 100 μl of sterile phosphate buffer saline For imaging mice were euthanized 2 h post injection by CO2 asphyxiation and imaged using Kodak Imaging Station. After imaging necroscopy was performed on animals to remove selected tissue and weighted. Tissue bound radioactivity was quantified by using gamma counter (Packard Gamma Counter) For time course study, the animals were sacrificed at following time points post injections: 2 h, 4 h, 6 h, and 8 h. Tissue of interest was weighed and the tissue bound radioactivity was counted by using gamma counter. Count per minute values of tissues bound radioactivity was decay corrected and converted into percentage injected dose per gram if the tissue (% ID/g). The data was analyzed by using GraphPad Prism.
In vivo whole body imaging and biodistribution of JL-L1A, JL-L2A and JL-L3A. In order to investigate the uptake of radioactive conjugates in LHRH-R positive tumors all the three conjugates (150 μCi) were injected the lateral vein of mice with MDA-MB231 tumors. For competition studies the mice were additional injected with 100-fold excess of the unlabeled conjugates. MDA-MB231 tumor bearing mice were injected with the ^99mTc chelated conjugates in their lateral tail vein (mice labeled as treated). Another group of mice were injected with the ^99mTc labeled molecules but in the presence of excess of the unlabeled conjugates. Images were taken 2 h post injections. FIG. 17A represents whole body imaging of JL-L1A whereas FIG. 17B and FIG. 17C represents the whole body imaging of JL-L2A and JL-L3A respectively. (n=5).
The further investigate the retention of 99mTc chelated JL-L3A, the radioactive conjugate was injected in mice with MDA-MB231 xenografts. After euthanizing the. Animals at 2 h, 4 h and 8 h post injection they were imaged and radioactivity associated with organs of interest was counted. […] MDA-MB231 tumor bearing mice were injected with the ^99mTc chelated conjugates in their lateral tail vein (mice labeled as treated). Another group of mice were injected with the ^99mTc labeled molecules but in the presence of excess of the unlabeled conjugates. Radioactivity of all the major organs and blood were determined 2 h post injection and the percentage injected dose per gram of the tissue was plotted. FIG. 18A represents biodistribution of JL-L1A whereas FIG. 18B and FIG. 18C represents the biodistribution of JL-L2A and JL-L3A respectively (n=5). Error bar indicates standard deviation.

For series [2], the system named is SKOV3 cells. The format is cell-based, human. Particulars: free drug, 2 h exposure + 66 h, 3H-thymidine incorporation. How it is done:
(§1) In vitro determination of cell viability. MDA-MB231 and SKVO3 cells were seeded at a concentration of 10,000 cells per well on a 24 well plate and allowed to grow in monolayers. […] After incubating for 2 h at 37° C., cells were rinsed three times with fresh medium and then incubated in 0.5 ml fresh medium for an additional 66 h at 37° C. Sent medium was then replaced with 0.5 ml of medium containing ^3H-thymidine and incubated for additional 4 h. Cells were then again washed three times with the fresh medium and then incubated with 0.5 ml of 2.5% trichloroacetic acid for 10 min at room temperature. After removing the trichloroacetic acid, cells were dissolved in 0.25 N NaOH. Cell viability was determined by counting the incorporation of ^3H-thymidine in cells using scintillation counter (Packard, Packard Instrument Company). The IC50 value was derived from a plot of the percent of ^3H-thymidine incorporation versus log concentration using Graph Pad Prism 4.
(§2) In vitro cytotoxicity of tubulysin B hydrazide conjugate: To inspect the killing efficiency of the therapeutic conjugate, MDA-MB231 and SKOV3 cancer cells were incubated with various concentrations of JL-L3-TubBH either in the presence or absence of excess JL-L3, for 2 h at 37° C. After washing off the excess conjugate, the cells were incubated in fresh media for an additional 66 h followed by incubation with media containing ^3H-thymidine to assess cell viability. Radioactivity was counted using PerkinElmer's scintillation counter. The same procedure was repeated after exposing the cells to the free tubulysin B hydrazide.
(In general: Dividing cells build labelled thymidine or BrdU into new DNA.)

In series [3] the test system is MDA-MB231 cells. The format is cell-based, human. The note with it: free drug, 2 h exposure + 66 h, 3H-thymidine incorporation; read-out: IC50. How it is done: as §1, §2
Series [4] concerns the target T1, LHRH-R (Homo sapiens, UniProt P30968).
T1 construct: LHRH-R positive breast cancer cell, MDA-MB231; endogenous in cells; host or cells: MDA-MB231 breast cancer cells
T1 sequence (P30968 1-328): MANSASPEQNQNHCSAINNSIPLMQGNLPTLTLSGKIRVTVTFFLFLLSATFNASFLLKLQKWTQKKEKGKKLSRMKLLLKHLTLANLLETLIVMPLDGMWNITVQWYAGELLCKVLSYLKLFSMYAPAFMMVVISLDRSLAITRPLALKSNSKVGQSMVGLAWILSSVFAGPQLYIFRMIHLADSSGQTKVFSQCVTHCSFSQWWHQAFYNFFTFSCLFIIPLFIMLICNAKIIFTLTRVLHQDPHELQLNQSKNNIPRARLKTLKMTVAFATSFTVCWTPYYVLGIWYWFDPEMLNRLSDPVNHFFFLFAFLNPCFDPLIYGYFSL
Kind of series: In vitro binding assay of 99mTc radioactive conjugate by cell bound radioactivity. The note with it: MDA-MB231 cells. As to the method: In vitro binding assay. MDA-MB231 cells were seeded in 24 well plate and allowed to form a monolayer. […] The cells were incubated for 2 h at 37° C. and then rinsed three times with medium. After rinsing cells were dissolved by adding 0.5 ml of 0.25N NaOH to each well for 20 minutes. The cell bound radioactivity measured by using Packcard gamma counter and the Kd was calculated using the graphpad prism by plotting the cell bound radioactivity against the concentration of radiotracer. […] Solid circle indicates ^99mTc chelated conjugates whereas open circle indicates competition.
To determine the binding affinity, the MDA-MB231 cells were incubated with various concentrations of the radioactive conjugate JL-L1A either in the presence or absence of the unlabeled conjugate for 2 h at 37° C.

Regarding `Cc1c(-c2cccc(CCC(=O)NCCCCCCCC(=O)N[C@H](CCC(=O)NC[C@H](O)[C@@H](O)[C@H](O)[C@H](O)CO)C(=O)N[C@H](CCC(=O)O)C(=O)N[C@H](CCC(=O)NC[C@H](O)[C@@H](O)[C@H](O)[C@H](O)CO)C(=O)NC[C@H](N)C(=O)N[C@@H](CC(=O)O)C(=O)N[C@@H](CS)C(=O)O)c2)c(=O)n(C[C@H](N)c2ccccc2)c(=O)n1Cc1c(F)cccc1F` (99mTc complex, metal not drawn) [JL-L3A], the “Kidney and liver uptake” value in series [1] (99mTc conjugate) is “non-specific”. Moreover, in series [1] (2 h post injection), the “Competition of kidney uptake by coadministered unlabeled conjugate” value was “not competed” and the “Biodistribution compared among the three conjugates” value is “most favorable biodistributions”. In addition, in series [1] (150 μCi, 2 h post injection), the Kidney uptake entry is “highest uptake in the kidney” and the Spleen uptake result is “only minimal activity”. Besides, the “Tissue distribution at 4 h and 8 h post injection” value in series [1] (compared with 2 h post injection) is recorded as “same pattern as 2 h post injection”. The “Tumor radioactivity intensity at 8 h relative to 2 h post-injection” value in series [1] (time-dependent imaging, 2 h, 4 h, 8 h) is listed as “less than half of the intensity at 2 h post-injection”.
Regarding `Cc1c(-c2cccc(CCC(=O)NCCOCCOCCOCCOCCOCCOCCC(=O)NC[C@H](N)C(=O)N[C@@H](CC(=O)O)C(=O)N[C@@H](CS)C(=O)O)c2)c(=O)n(C[C@H](N)c2ccccc2)c(=O)n1Cc1c(F)cccc1F` [JL-L2A], the “Competition of kidney uptake by coadministered unlabeled conjugate” value in series [1] (2 h post injection) was “not competed”. Further, in series [1] (150 μCi, 2 h post injection), the Kidney uptake result is given as “highest uptake in the kidney” and the Spleen uptake entry is listed as “significant non-specific uptake in the spleen”.
Take `Cc1c(-c2cccc(CCC(=O)N[C@@H](CCC(=O)N[C@H](CCC(=O)NC[C@H](N)C(=O)N[C@@H](CC(=O)O)C(=O)N[C@@H](CS)C(=O)O)C(=O)O)C(=O)O)c2)c(=O)n(C[C@H](N)c2ccccc2)c(=O)n1Cc1c(F)cccc1F` [JL-L1A]: in series [1] (150 μCi 99mTc conjugate i.v., 2 h post injection, with/without 100-fold excess unlabeled conjugate), the Tumor uptake entry is recorded as “highest uptake in the tumor”. Further, the “Uptake in other organs” value in series [1] (150 μCi, 2 h post injection) is listed as “uptake in other vital organs”.
As to `CCCC(=O)OCN(C(=O)[C@@H](NC(=O)[C@H]1CCCCN1C)C(C)CC)[C@H](C[C@@H](OC(C)=O)c1nc(C(=O)N[C@@H](Cc2ccc(O)cc2)C[C@H](C)C(=O)NN)cs1)C(C)C` (stereo partly shown) [tubulysin B hydrazide, Tubulysin B hydrazide, reference compound], the IC50 in series [2] came to 0.005 nM; in series [3] it was 0.067 nM.
As to `Cc1c(-c2cccc(CCC(=O)NCCCCCCCC(=O)N[C@H](CCC(=O)NC[C@H](O)[C@@H](O)[C@H](O)[C@H](O)CO)C(=O)N[C@H](CCC(=O)O)C(=O)N[C@H](CCC(=O)NC[C@H](O)[C@@H](O)[C@H](O)[C@H](O)CO)C(=O)NC[C@H](N)C(=O)N[C@@H](CC(=O)O)C(=O)N[C@@H](CS)C(=O)O)c2)c(=O)n(C[C@H](N)c2ccccc2)c(=O)n1Cc1c(F)cccc1F` [JL-L3A], the Kd in series [4] (99mTc chelated conjugate, 2 h at 37° C.) is 14.4 nM. In series [4] (presence of excess of competing ligand), the “Cell-bound radioactivity under competition” value was “diminished”.

As usually defined, the IC50 is the midpoint of a concentration-inhibition curve. The Kd is the concentration at which binding is half-saturated.
